Reference: article PMC10397247
Where two headings read alike, the source gives them in different places. Values belong to the binder of their own block, whether it stands above or below them.

Columns and labels:
P8A-bA = biological target: T1, P8A-bA; assay: two-hybrid library CCNG1;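 also: natural log of median RNA to DNA barcode read ratio; higher means stronger binding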
T1 chain: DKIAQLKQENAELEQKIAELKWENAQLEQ

P9A-bA = biological target: T2, P9A-bA; assay: two-hybrid library CCNG1;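 also: natural log of median RNA to DNA barcode read ratio; higher means stronger binding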
T2 chain: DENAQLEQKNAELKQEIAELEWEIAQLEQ

4H3340-AA = biological target: T3, 4H3340-AA; assay: two-hybrid library CCmax;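 also: natural log of median RNA to DNA barcode read ratio; higher means stronger binding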
T3 chain: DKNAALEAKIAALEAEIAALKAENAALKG

4H3381-AA = biological target: T4, 4H3381-AA; assay: two-hybrid library CCmax; conditions: mean of both orientations;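 also: natural log of median RNA to DNA barcode read ratio; higher means stronger binding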
T4 chain: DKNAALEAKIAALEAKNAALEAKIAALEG

4H347-AA = biological target: T5, 4H347-AA; assay: two-hybrid library CCmax; conditions: mean of both orientations;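 also: natural log of median RNA to DNA barcode read ratio; higher means stronger binding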
T5 chain: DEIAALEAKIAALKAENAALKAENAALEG

4H3493-AA = biological target: T6, 4H3493-AA; assay: two-hybrid library CCmax; conditions: mean of both orientations;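 also: natural log of median RNA to DNA barcode read ratio; higher means stronger binding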
T6 chain: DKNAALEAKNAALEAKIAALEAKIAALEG

4H376-AA = biological target: T7, 4H376-AA; assay: two-hybrid library CCmax; conditions: mean of both orientations
T7 chain: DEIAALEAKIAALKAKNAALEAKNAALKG

4H406-AA = biological target: T8, 4H406-AA; assay: two-hybrid library CCmax; conditions: mean of both orientations
T8 chain: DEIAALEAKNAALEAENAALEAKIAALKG

4H688-AA = biological target: T9, 4H688-AA; assay: two-hybrid library CCmax
T9 chain: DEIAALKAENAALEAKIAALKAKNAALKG

4H963-AA = biological target: T10, 4H963-AA; assay: two-hybrid library CCmax; conditions: mean of both orientations
T10 chain: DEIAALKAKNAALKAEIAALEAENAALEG

4H3001-AA = biological target: T11, 4H3001-AA; assay: two-hybrid library CCmax
T11 chain: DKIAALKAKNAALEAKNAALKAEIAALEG

4H3015-AA = biological target: T12, 4H3015-AA; assay: two-hybrid library CCmax; conditions: mean of both orientations
T12 chain: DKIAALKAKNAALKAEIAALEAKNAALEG

4H3073-AA = biological target: T13, 4H3073-AA; assay: two-hybrid library CCmax; conditions: mean of both orientations
T13 chain: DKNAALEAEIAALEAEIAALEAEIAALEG

4H3438-AA = biological target: T14, 4H3438-AA; assay: two-hybrid library CCmax; conditions: mean of both orientations
T14 chain: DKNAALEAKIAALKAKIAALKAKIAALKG

4H452-AA = biological target: T15, 4H452-AA; assay: two-hybrid library CCmax; conditions: mean of both orientations
T15 chain: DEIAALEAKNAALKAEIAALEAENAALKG

4H56-AA = biological target: T16, 4H56-AA; assay: two-hybrid library CCmax; conditions: mean of both orientations
T16 chain: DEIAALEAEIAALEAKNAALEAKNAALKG

4H_APH = biological target: T17, 4H_APH; assay: two-hybrid library CCmax
T17 chain: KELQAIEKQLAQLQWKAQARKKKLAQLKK

4H_BCR = biological target: T18, 4H_BCR; assay: two-hybrid library CCmax; conditions: mean of both orientations
T18 chain: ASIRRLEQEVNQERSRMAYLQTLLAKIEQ

4H_GCN4 = assay: two-hybrid library CCmax; conditions: mean of both orientations
GCN2_T = assay: two-hybrid library CCmax

Chain of 4H_GCN4 (chain, as listed by the source): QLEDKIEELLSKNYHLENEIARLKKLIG

interaction score (P8A-bA): -0.497
interaction score (P9A-bA): -0.256
Binder: DKIAQLKQENAELEQKIAELKWENAQLEQ [P8A-bA]

interaction score (4H3340-AA): 1.7
interaction score (4H3381-AA): -1.57
interaction score (4H347-AA): -0.858
interaction score (4H3493-AA): -1.48
interaction score (4H376-AA): -1.48
interaction score (4H406-AA): -1.43
interaction score (4H688-AA): -1.69
interaction score (4H963-AA): -2.28
Binder: DKNAALEAKIAALEAEIAALKAENAALKG [4H3340-AA]

interaction score (4H3001-AA): -1.82
interaction score (4H3015-AA): -1.86
interaction score (4H3073-AA): -0.938
interaction score (4H3340-AA; mean of both orientations): -1.44
interaction score (4H3381-AA): -1.43
interaction score (4H3438-AA): -1.83
interaction score (4H347-AA): -2.08
interaction score (4H3493-AA): -1.38
interaction score (4H376-AA): -1.69
interaction score (4H406-AA): 2.27
interaction score (4H452-AA): -1.76
interaction score (4H56-AA): -1.87
interaction score (4H688-AA; mean of both orientations): -1.46
interaction score (4H963-AA): -1.94
interaction score (4H_APH): -2
interaction score (4H_BCR): -2.15
interaction score (4H_GCN4): -2.43
interaction score (GCN2_T): -1.9
Binder: DKIAALKAKNAALEAKNAALKAEIAALEG [4H3001-AA]
